Data on four molecules can be found in patent publication US20240085427A1 (published 2024).

Assay [1] addresses T1, Anterior Gradient 2 (AGR2) (UniProt O95994 21-175).
T1 chain: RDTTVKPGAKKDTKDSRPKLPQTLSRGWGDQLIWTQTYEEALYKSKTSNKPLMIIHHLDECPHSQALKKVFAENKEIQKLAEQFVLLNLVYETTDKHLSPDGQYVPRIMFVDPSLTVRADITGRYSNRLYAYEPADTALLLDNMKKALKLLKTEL
The assay can be described thus: ELISA. On the technique in general: ELISA stands for enzyme-linked immunosorbent assay.

Assay [2] deals with Anterior Gradient 2 (AGR2) (UniProt O95994). The assay can be described thus: cell-based or functional assay.
Assay [3] concerns the target T2, Anterior Gradient 2 (AGR2) (UniProt O95994 21-175, limits assumed).
T2 construct: In the killing assays AGR2 is the protein expressed by human Capan1 cells; also called PDIA17; Anterior gradient protein 2 homolog
T2 sequence (looked up): T1 chain
Put plainly: ELISA and SPR (so in the source); purified scFv on AGR2.

Assay [4] concerns the target T1, Anterior Gradient 2 (AGR2). The assay can be described thus: BLI (Octet).
The target of assay [5] is T2, Anterior Gradient 2 (AGR2). Put plainly: ELISA and SPR (so in the source); the same KD in mass units.
For assay [6], the target named is T2, Anterior Gradient 2 (AGR2). The assay can be described thus: cell-based or functional assay.
The target in assay [7] is T3, bovine serum albumin (BSA) (bovine, UniProt P02769 25-607).
T3 construct: Control coating in ELISA; also called control (BSA)
The assay can be described thus: ELISA on coated plates (FIG. 6A).

Usually EC50 stands for the concentration needed to bring the measured effect to its halfway point. High values mean lower potency in that assay, low ones higher potency in that assay. As usually defined, the Kd is the concentration at which binding is half-saturated. High values mean lower affinity, low ones higher affinity.

T3 sequence (P02769 25-607 limits assumed): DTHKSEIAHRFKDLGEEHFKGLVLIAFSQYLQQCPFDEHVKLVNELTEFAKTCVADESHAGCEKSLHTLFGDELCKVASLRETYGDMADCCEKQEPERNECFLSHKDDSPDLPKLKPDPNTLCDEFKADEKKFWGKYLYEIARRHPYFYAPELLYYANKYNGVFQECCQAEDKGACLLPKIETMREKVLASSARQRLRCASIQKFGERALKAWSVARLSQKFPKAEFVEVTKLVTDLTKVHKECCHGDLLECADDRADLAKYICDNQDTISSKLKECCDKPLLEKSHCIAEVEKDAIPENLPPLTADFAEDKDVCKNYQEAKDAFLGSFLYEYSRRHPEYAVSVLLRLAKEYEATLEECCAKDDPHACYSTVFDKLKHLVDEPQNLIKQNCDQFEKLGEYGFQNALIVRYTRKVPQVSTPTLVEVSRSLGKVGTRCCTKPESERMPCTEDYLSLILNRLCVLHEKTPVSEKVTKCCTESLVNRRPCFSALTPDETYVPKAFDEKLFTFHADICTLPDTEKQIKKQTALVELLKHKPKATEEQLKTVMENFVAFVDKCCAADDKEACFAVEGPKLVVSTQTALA

B1: anti-AGR2 scFv clone 26 (scFv)
scFv: EVQLLESGGGLVQPGGSLRLSCAASGFTFSSYAMSWVRQAPGKGLEWVSSIQGQGRITRYADSVKGRFTISRDNSKNTLYLQMNSLRAEDTAVYYCAKRAIMFDYWGQGTLVTVSSGGGGSGGGGSGGGGSTDIQMTQSPSSLSASVGDRVTITCRASQSISSYLNWYQQKPGKAPKLLIYHASLLQSGVPSRFSGSGSGTDFTLTISSLQPEDFATYYCQQARYWPLTFGQGTKVEIK
In turn, B1 yielded an EC50 in assay [1] greater than 100 mg/L.

B2: human targeted AGR2xCD3 BiTE (anti-AGR2 scFv clone-15 linked to anti-CD3 scFv derived from Orthoclone OKT3) (bispecific antibody, part only; not given: anti-CD3 scFv, linker, His tag, not shown: small tags and cut ends)
chain, part: EVQLLESGGGLVQPGGSLRLSCAASGFTFSSYAMSWVRQAPGKGLEWVSGISAQGAHTTYADSVKGRFTISRDNSKNTLYLQMNSLRAEDTAVYYCAKTYKGFDYWGQGTLVTVSSGGGGSGGGGSGGGGSTDIQMTQSPSSLSASVGDRVTITCRASQSISSYLNWYQQKPGKAPKLLIYSASRLQSGVPSRFSGSGSGTDFTLTISSLQPEDFATYYCQQGRRMPPTFGQGTKVEIKEVQLLESGGGLVQPGGSLRLSCAASGFTFSSYAMSWVRQAPGKGLEWVSGISAQGAHTTYADSVKGRFTISRDNSKNTLYLQMNSLRAEDTAVYYCAKTYKGFDYWGQGTLVTVSSGGGGSGGGGSGGGGSTDIQMTQSPSSLSASVGDRVTITCRASQSISSYLNWYQQKPGKAPKLLIYSASRLQSGVPSRFSGSGSGTDFTLTISSLQPEDFATYYCQQGRRMPPTFGQGTKVEIK
On to B2, for which the EC50 on Capan1 cell viability, BiTE alone (no PBMCs) in assay [2] came to 16.5 µM.

B3: anti-AGR2 scFv clone-15 (scFv)
scFv: EVQLLESGGGLVQPGGSLRLSCAASGFTFSSYAMSWVRQAPGKGLEWVSGISAQGAHTTYADSVKGRFTISRDNSKNTLYLQMNSLRAEDTAVYYCAKTYKGFDYWGQGTLVTVSSGGGGSGGGGSGGGGSTDIQMTQSPSSLSASVGDRVTITCRASQSISSYLNWYQQKPGKAPKLLIYSASRLQSGVPSRFSGSGSGTDFTLTISSLQPEDFATYYCQQGRRMPPTFGQGTKVEIK
notes: Found by phage display, cloned into pET22b, produced and purified in BL21(DE3) E. coli; also called AGR2-scFv-15; scFv-15
Turning to B3, the Kd in assay [3] was 0.179 µM; in assay [4], 0.00157 µM; in assay [5], 4.69 mg/L. For the same molecule, the “EC50 in the same TDCC assay (Capan1 cells with human PBMCs), scFv alone as comparator” value in assay [6] was 19.8 µM. Also, in assay [7], the binding result is on record as “no binding”.

B4: anti-AGR2 scFv clone 19 (scFv)
scFv: EVQLLESGGGLVQPGGSLRLSCAASGFTFSSYAMSWVRQAPGKGLEWVSAIASQGVATGYADSVKGRFTISRDNSKNTLYLQMNSLRAEDTAVYYCAKLDQHFDYWGQGTLVTVSSGGGGSGGGGSGGGGSTDIQMTQSPSSLSASVGDRVTITCRASQSISSYLNWYQQKPGKAPKLLIYQASRLQSGVPSRFSGSGSGTDFTLTISSLQPEDFATYYCQQARRLPLTFGQGTKVEIK
In turn, B4 had an EC50 in assay [1] greater than 100 mg/L.
